From paper PMC10641069, “Intra- and inter-molecular regulation by intrinsically-disordered regions governs PUF protein RNA binding” (Nature Communications, 2023) come the findings set out here.

Residue numbers refer to the chain shown, from its start. Numbers in names are those of the source. Where “and” joins values, the source holds several entries; their conditions need not be identical. Identical values can stand only once. Like-named read-outs stand apart in the source and are kept apart here.

Data set [1] addresses gld-1 FBEa RNA. In words: Electrophoretic mobility shift assay (EMSA), RNA binding. Also noted: species or system C. elegans. The protocol:
A 3′-Cy5-labeled synthetic RNA was ordered from IDT (gld-1 FBEa, 5′-[…]-3′). The FBF-2 proteins were serially diluted 2-fold from the highest concentration of 10 µM in the buffer used for gel filtration (20 mM HEPES pH 7.4, 150 mM NaCl, and 0.5 mM TCEP). 10 µl of the serially diluted protein samples were mixed with 10 µl RNA (10 nM) in a 2× buffer of 10 mM HEPES pH 7.4, 0.01% (v/v) Tween 20, 0.1 mg/ml BSA, 0.1 mg/ml yeast tRNA, and 2 mM DTT. For experiments in the presence of LST-1, LST-1 proteins at constant concentration were preincubated with FBF-2 at 4 °C for 2 h. The LST-1 concentrations were chosen based on their Kd’s for interaction with FBF-2. The final FBF-2 concentrations ranged from 5000 nM to 0.6 nM, and the LST-1 A or B concentrations were constant at 150 μM or 50 μM, respectively. The protein-RNA mixtures were incubated at 4 °C overnight. The samples were resolved on 10% TBE polyacrylamide gels run at constant voltage (100 V) with 1× TBE buffer at room temperature for 35 min. The gels were scanned and visualized with a Typhoon FLA 9500 imager using the Cy5 channel (excitation wavelength 635 nm). Band intensities were quantified with ImageQuant 5.2 (Cytiva). The data were fit with GraphPad Prism (version 9.2.0) using nonlinear regression with a one-site specific binding model. Mean Kd’s and standard error of the mean (SEM) from three or more technical replicates are reported (Supplementary Table 4). Full scan images for the replicates shown in the main figures and gel images for all replicates are included in a source data file.
On the technique in general: In EMSA bound probe runs differently from free probe, usually more slowly.

The target in data set [2] is gld-1 FBEa RNA. The data set can be described thus: Surface plasmon resonance, RNA-binding kinetics. Also noted: species or system C. elegans. How it is done:
Kinetics of FBF-2 binding to the gld-1 FBEa RNA were measured using a 2-channel OpenSPR instrument (Nicoya). A 3′-biotin-labeled synthetic RNA was ordered from Horizon Discovery (gld-1 FBEa, 5′-AUCAUGUGCCAUACA-biotin-3′). The 3′-biotinylated RNA was immobilized on streptavidin-treated biotin sensor chips (Nicoya). All experiments were performed at 20 °C with a buffer of 20 mM HEPES, pH 7.4, 150 mM NaCl, and 2 mM DTT. SPR data were collected using OpenSPR (Nicoya, version 4.3). FBF-2 proteins were injected with a flow rate of 20 µl/min. Data were obtained at five different protein concentrations (25, 50, 100, 200, and 400 nM for wild type RBD + CT; 12.5, 25, 50, 100, and 200 nM for RBD + CT mutants and wild type RBD). Sensor chips were regenerated using 0.05% or 0.1% (v/v) SDS. For each experiment, five binding curves were simultaneously fit using a 1:1 binding model with the TraceDrawer software (Ridgeview Instruments, version 1.9.1). Mean values and standard deviation were calculated from two technical replicates. Despite our efforts, the fit of the binding curves for the association phase of FBF-2 RBD and FBF-2 RBD + CT mutants is poorer than the fit for FBF-2 RBD + CT WT. The appearance of the curves is consistent with the derived kon and koff values, and importantly, the curve fit for the dissociation phase is better.
In general terms: Surface plasmon resonance follows binding to a sensor surface in real time, without labels.

The nature of data set [3]: Melting temperature of FBF-2 proteins. The class given is physicochemical. The conditions noted are these: for thermal stability: in words, vs RBD alone or vs RBD + CT. The protocol: Mutants of FBF-2 RBD + CT: Y479A (5′-[…]), L610A (5′-[…]), and Loop6A (E592A, D594A, E597A, E599A, E604A, E605A; 5′-[…]) were generated by site-directed mutagenesis with the primers indicated. Plasmid sequences were verified by DNA sequencing (Azenta Life Sciences). Protein variants were expressed and purified like wild type proteins. Melting temperatures of wild type and mutant proteins were assessed by differential scanning […]. Reaction mixtures (total volume of 20 μl) contained ~0.3 mg/ml FBF-2 proteins and Sypro Orange dye (1:1000 dilution) (Sigma). Fluorescent intensity was collected from 25 °C to 95 °C (3 °C increment/min) with a real time PCR instrument (Applied Biosystems™ QuantStudio 7 Flex System) using excitation and emission wavelengths of 470 nm and 586 nm, respectively. Protein Thermal Shift^TM software (Applied Biosystems, version 1.4) was used to analyze protein melting curves and calculate melting temperatures (Tm).

[4] abbreviates: no LST-1, mean ± SEM of independent technical replicates (n = 3-5), 4 °C overnight, pH 7.4, Cy5-RNA 5′-AUCAUGUGCCAUAC-3′.
Setting [5] is: derived from on/off rates, mean ± SD, two technical replicates.
Setting [6] is: mean ± SD, two technical replicates, 20 °C, pH 7.4, 1:1 model.
Setting [7] is: mean ± SD, three technical replicates, ~0.3 mg/ml protein, Sypro Orange, 25 to 95 °C, fluorescence.

The Kd is the equilibrium constant for the complex coming apart. Broadly, the koff is the first-order rate constant of dissociation. The term kon denotes a measure of how fast the partners come together.

B1: FBF-2 RBD: FBF-2 RNA-binding domain, residues 164-575, lacking the C-terminal tail (protein)
chain: SNNVLPTWSLDSNGEMRSRLSLSEVLDSGDLMKFAVDKTGCQFLEKAVKGSLTSYQKFQLFEQVIGRKDDFLKLSTNIFGNYLVQSVIGISLATNDDGYTKRQEKLKNFISSQMTDMCLDKFACRVIQSSLQNMDLSLACKLVQALPRDARLIAICVDQNANHVIQKVVAVIPLKNWEFIVDFVATPEHLRQICSDKYGCRVVQTIIEKLTADSMNVDLTSAAQNLRERALQRLMTSVTNRCQELATNEYANYIIQHIVSNDDLAVYRECIIEKCLMRNLLSLSQEKFASHVVEKAFLHAPLELLAEMMDEIFDGYIPHPDTGKDALDIMMFHQFGNYVVQCMLTICCDAVSGRRQTKEGGYDHAISFQDWLKKLHSRVTKERHRLSRFSSGKKMIETLANLRSTHPIYELQ
modifications: left off: His6-SUMO, N-terminal, cleaved
Consider B1, for which the Kd at gld-1 FBEa RNA [1] (in the presence of 50 μM LST-1 B, mean ± SEM, n = 3, 4 °C overnight, pH 7.4) was found to be 176 nM; on gld-1 FBEa RNA [1] (setting [4]), 70 nM; at gld-1 FBEa RNA [1] (no LST-1, replicate 1), 75 nM; on gld-1 FBEa RNA [1] (no LST-1, replicate 2), 62 nM; on gld-1 FBEa RNA [1] (no LST-1, replicate 3) it was 98 nM; on gld-1 FBEa RNA [1] (no LST-1, replicate 4), 44 nM. The Kd on gld-1 FBEa RNA [1] (with 50 μM LST-1 B, replicate 1) is 148 nM; on gld-1 FBEa RNA [1] (with 50 μM LST-1 B, replicate 2), 180 nM; at gld-1 FBEa RNA [1] (with 50 μM LST-1 B, replicate 3), 201 nM; at gld-1 FBEa RNA [2] (setting [5]), 6.6 ± 2.3 nM; at gld-1 FBEa RNA [2] (replicate 1) it was 8.2 nM; on gld-1 FBEa RNA [2] (replicate 2), 5 nM. Besides, the koff in the data set with gld-1 FBEa RNA [2] (setting [6]) stood at 0.00086 s⁻¹; in the data set on gld-1 FBEa RNA [2] (replicate 1, read-out: koff), 0.000979 s⁻¹; in the data set on gld-1 FBEa RNA [2] (replicate 2, read-out: koff), 0.00075 s⁻¹. The kon turned out to be 136000 M⁻¹ s⁻¹ with gld-1 FBEa RNA [2] (setting [6]), 120000 M⁻¹ s⁻¹ in the data set on gld-1 FBEa RNA [2] (replicate 1) and 151000 M⁻¹ s⁻¹ in the data set on gld-1 FBEa RNA [2] (replicate 2). Moreover, the Tm in data set [3] (setting [7]) turned out to be 36.32 ± 0.05 °C; in data set [3] (replicate 1) it was 36.42 °C; in data set [3] (replicate 2) it was 36.28 °C; in data set [3] (replicate 3) it was 36.28 °C.

B2: FBF-2 RBD + CT: C. elegans FBF-2 RBD plus C-terminal tail, residues 164-632 (protein)
chain: SNNVLPTWSLDSNGEMRSRLSLSEVLDSGDLMKFAVDKTGCQFLEKAVKGSLTSYQKFQLFEQVIGRKDDFLKLSTNIFGNYLVQSVIGISLATNDDGYTKRQEKLKNFISSQMTDMCLDKFACRVIQSSLQNMDLSLACKLVQALPRDARLIAICVDQNANHVIQKVVAVIPLKNWEFIVDFVATPEHLRQICSDKYGCRVVQTIIEKLTADSMNVDLTSAAQNLRERALQRLMTSVTNRCQELATNEYANYIIQHIVSNDDLAVYRECIIEKCLMRNLLSLSQEKFASHVVEKAFLHAPLELLAEMMDEIFDGYIPHPDTGKDALDIMMFHQFGNYVVQCMLTICCDAVSGRRQTKEGGYDHAISFQDWLKKLHSRVTKERHRLSRFSSGKKMIETLANLRSTHPIYELQSSGHDSFKTDYFSTASEHDGPELEKNGIEEGSLMLEPRSNKSSVSVKFSSSGSHGDD
modifications: left off: His6-SUMO, N-terminal, cleaved
Consider B2, for which the “fold weaker RNA-binding affinity” value with gld-1 FBEa RNA [1] (RBD + CT vs RBD alone) is recorded as around 5 fold. Besides, the Kd at gld-1 FBEa RNA [1] (setting [4]) is 334 nM; at gld-1 FBEa RNA [1] (no LST-1, replicate 1), 294 nM; at gld-1 FBEa RNA [1] (no LST-1, replicate 2) it was 394 nM; on gld-1 FBEa RNA [1] (no LST-1, replicate 3) it was 379 nM; at gld-1 FBEa RNA [1] (no LST-1, replicate 4) it was 270 nM; on gld-1 FBEa RNA [1] (pH 7.4), 114 nM and 68 nM. For the same molecule, the Kd at gld-1 FBEa RNA [1] (with 150 μM LST-1 A, replicate 1) was determined as 111 nM; at gld-1 FBEa RNA [1] (with 150 μM LST-1 A, replicate 2), 106 nM; at gld-1 FBEa RNA [2] (setting [5]), 65.1 ± 21.1 nM; on gld-1 FBEa RNA [2] (replicate 1), 80 nM; at gld-1 FBEa RNA [2] (replicate 2), 50 nM. For the same molecule, in the data set on gld-1 FBEa RNA [2] (RBD + CT vs RBD), the “fold faster off rate” value is recorded as ~ 5 fold. Also, the koff with gld-1 FBEa RNA [2] (setting [6]) worked out at 0.00442 s⁻¹; in the data set with gld-1 FBEa RNA [2] (replicate 1, read-out: koff), 0.00469 s⁻¹; in the data set on gld-1 FBEa RNA [2] (replicate 2, read-out: koff) it was 0.00414 s⁻¹. In addition, the association rate constant (kon) came to 71000 M⁻¹ s⁻¹ in the data set on gld-1 FBEa RNA [2] (setting [6]), 58700 M⁻¹ s⁻¹ with gld-1 FBEa RNA [2] (replicate 1) and 82500 M⁻¹ s⁻¹ with gld-1 FBEa RNA [2] (replicate 2). Besides, the thermal stability result in data set [3] is reported as “increased thermal stability compared to the RBD alone”. The Tm in data set [3] (setting [7]) turned out to be 40.24 ± 0.12 °C; in data set [3] (replicate 1) it was 40.06 °C; in data set [3] (replicate 2) it was 40.48 °C; in data set [3] (replicate 3) it was 40.20 °C.

B3: FBF-2 RBD + CT L610A: FBF-2 RBD + CT mutated in the C-terminal tail (L610A) (protein)
chain: B2 chain with L447A
modifications: left off: His6-SUMO, N-terminal, cleaved
Take B3: the Kd at gld-1 FBEa RNA [1] was 61 nM and 93 nM and 91 nM; at gld-1 FBEa RNA [1] (setting [4]) it was 51 nM; at gld-1 FBEa RNA [1] (no LST-1, replicate 1), 38 nM; at gld-1 FBEa RNA [1] (no LST-1, replicate 2), 32 nM; on gld-1 FBEa RNA [1] (no LST-1, replicate 3), 66 nM; on gld-1 FBEa RNA [1] (no LST-1, replicate 4), 30 nM. Moreover, the Kd on gld-1 FBEa RNA [1] (no LST-1, replicate 5) came out at 89 nM; on gld-1 FBEa RNA [1] (pH 7.4), 82 ± 18 nM; on gld-1 FBEa RNA [2] (setting [5]), 9.4 ± 3.6 nM; on gld-1 FBEa RNA [2] (replicate 1), 11.9 nM; at gld-1 FBEa RNA [2] (replicate 2), 6.8 nM. The koff with gld-1 FBEa RNA [2] (setting [6]) is 1.36 ± 0.11 x10^-3 s^-1; in the data set with gld-1 FBEa RNA [2] (replicate 1, read-out: koff), 0.00144 s⁻¹; in the data set on gld-1 FBEa RNA [2] (replicate 2, read-out: koff) it was 0.00128 s⁻¹. The kon with gld-1 FBEa RNA [2] (setting [6]) is 15.5 ± 4.7 x10^4 M^-1 s^-1; with gld-1 FBEa RNA [2] (replicate 1) it was 121000 M⁻¹ s⁻¹; with gld-1 FBEa RNA [2] (replicate 2), 188000 M⁻¹ s⁻¹. Also, in data set [3], the thermal stability result is on record as “melting temperature of the mutated protein near that of the RBD alone”. For the same molecule, the Tm came out at 35.63 ± 0.05 °C in data set [3] (setting [7]), 35.72 °C in data set [3] (replicate 1), 35.58 °C in data set [3] (replicate 2) and 35.58 °C in data set [3] (replicate 3).
